In PMC6004480 (Proceedings of the National Academy of Sciences of the …, 2018):

T1: MTR4, full length (human, UniProt P42285 1-1042)
T1 sequence: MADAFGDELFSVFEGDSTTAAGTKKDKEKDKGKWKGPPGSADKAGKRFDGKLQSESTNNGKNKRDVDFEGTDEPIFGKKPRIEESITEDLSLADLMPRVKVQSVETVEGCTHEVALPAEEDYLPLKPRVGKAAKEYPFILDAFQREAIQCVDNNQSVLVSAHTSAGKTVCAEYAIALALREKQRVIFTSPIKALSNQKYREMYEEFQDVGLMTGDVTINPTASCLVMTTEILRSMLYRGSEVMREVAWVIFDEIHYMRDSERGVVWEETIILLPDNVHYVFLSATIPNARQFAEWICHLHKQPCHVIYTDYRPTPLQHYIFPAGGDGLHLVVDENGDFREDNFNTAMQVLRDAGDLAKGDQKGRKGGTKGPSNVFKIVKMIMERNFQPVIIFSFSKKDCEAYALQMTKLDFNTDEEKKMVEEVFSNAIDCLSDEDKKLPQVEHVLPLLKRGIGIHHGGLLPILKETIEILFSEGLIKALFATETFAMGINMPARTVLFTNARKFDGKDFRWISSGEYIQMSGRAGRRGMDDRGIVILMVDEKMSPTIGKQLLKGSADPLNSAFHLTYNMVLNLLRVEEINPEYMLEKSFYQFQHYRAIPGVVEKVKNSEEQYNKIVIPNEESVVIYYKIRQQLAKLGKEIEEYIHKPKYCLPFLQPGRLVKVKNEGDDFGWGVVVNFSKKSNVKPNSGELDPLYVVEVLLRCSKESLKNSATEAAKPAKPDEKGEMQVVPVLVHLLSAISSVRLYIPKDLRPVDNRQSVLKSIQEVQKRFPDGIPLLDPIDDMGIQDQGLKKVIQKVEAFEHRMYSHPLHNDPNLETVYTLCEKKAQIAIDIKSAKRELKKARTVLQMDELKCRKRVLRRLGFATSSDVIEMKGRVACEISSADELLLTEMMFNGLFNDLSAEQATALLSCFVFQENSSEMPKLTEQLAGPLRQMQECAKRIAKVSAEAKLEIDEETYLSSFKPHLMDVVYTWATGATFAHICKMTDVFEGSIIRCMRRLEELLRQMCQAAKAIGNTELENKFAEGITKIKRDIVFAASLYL

B1: Strep-tagged ZCCHC8 C-terminal domain (Z5; 659-707) (domain or fragment)
chain: PIPDMSKFATGITPFEFENMAESTGMYLRIRSLLKNSPRNQQKNKKASE
B2: Copurified complex of Strep-RBM7core and full-length ZCCHC8 (Z1) (complex)
chain 1: AEADRTLFVGNLETKVTEELLFELFHQAGPVIKVKIPKDKDGKPKQFAFVNFKHEVSVPYAMNLLNGIKLYGRPIKIQFRSGSSHAPQD
chain 2: MAAEVYFGDLELFEPFDHPEESIPKPVHTRFKDDDGDEEDENGVGDAELRERLRQCEETIEQLRAENQELKRKLNILTRPSGILVNDTKLDGPILQILFMNNAISKQYHQEIEEFVSNLVKRFEEQQKNDVEKTSFNLLPQPSSIVLEEDHKVEESCAIKNNKEAFSVVGSVLYFTNFCLDKLGQPLLNENPQLSEGWEIPKYHQVFSHIVSLEGQEIQVKAKRPKPHCFNCGSEEHQMKDCPMPRNAARISEKRKEYMDACGEANNQNFQQRYHAEEVEERFGRFKPGVISEELQDALGVTDKSLPPFIYRMRQLGYPPGWLKEAELENSGLALYDGKDGTDGETEVGEIQQNKSVTYDLSKLVNYPGFNISTPRGIPDEWRIFGSIPMQACQQKDVFANYLTSNFQAPGVKSGNKRSSSHSSPGSPKKQKNESNSAGSPADMELDSDMEVPHGSQSSESFQFQPPLPPDTPPLPRGTPPPVFTPPLPKGTPPLTPSDSPQTRTASGAVDEDALTLEELEEQQRRIWAALEQAESVNSDSDVPVDTPLTGNSVASSPCPNELDLPVPEGKTSEKQTLDEPEVPEIFTKKSEAGHASSPDSEVTSLCQKEKAELAPVNTEGALLDNGSVVPNCDISNGGSQKLFPADTSPSTATKIHSPIPDMSKFATGITPFEFENMAESTGMYLRIRSLLKNSPRNQQKNKKASE
B3: ZCCHC8, full length (Z1) (natural protein)
chain: B2 chain 2
B4: Copurified complex of Strep-RBM7core and ZCCHC8 1-327 (Z2) (complex)
chain 1: B2 chain 1
chain 2: MAAEVYFGDLELFEPFDHPEESIPKPVHTRFKDDDGDEEDENGVGDAELRERLRQCEETIEQLRAENQELKRKLNILTRPSGILVNDTKLDGPILQILFMNNAISKQYHQEIEEFVSNLVKRFEEQQKNDVEKTSFNLLPQPSSIVLEEDHKVEESCAIKNNKEAFSVVGSVLYFTNFCLDKLGQPLLNENPQLSEGWEIPKYHQVFSHIVSLEGQEIQVKAKRPKPHCFNCGSEEHQMKDCPMPRNAARISEKRKEYMDACGEANNQNFQQRYHAEEVEERFGRFKPGVISEELQDALGVTDKSLPPFIYRMRQLGYPPGWLKEAE
B5: Copurified complex of Strep-RBM7core and ZCCHC8 283-415 + 508-707 (Z4) (complex)
chain 1: B2 chain 1
chain 2: FGRFKPGVISEELQDALGVTDKSLPPFIYRMRQLGYPPGWLKEAELENSGLALYDGKDGTDGETEVGEIQQNKSVTYDLSKLVNYPGFNISTPRGIPDEWRIFGSIPMQACQQKDVFANYLTSNFQAPGVKSGGAVDEDALTLEELEEQQRRIWAALEQAESVNSDSDVPVDTPLTGNSVASSPCPNELDLPVPEGKTSEKQTLDEPEVPEIFTKKSEAGHASSPDSEVTSLCQKEKAELAPVNTEGALLDNGSVVPNCDISNGGSQKLFPADTSPSTATKIHSPIPDMSKFATGITPFEFENMAESTGMYLRIRSLLKNSPRNQQKNKKASE
B6: Substrate I (dsRNA)
RNA 1: AGUGCGCUGUAUCUUCAAGGCCACU
RNA 2: AGUGGCCUUGAAGAUACAGCGCACUUUUUUAAAAAAAAAAAAAAA
B7: ZCCHC8 1-327 (Z2) (domain or fragment)
chain: B4 chain 2
B8: ZCCHC8 283-415 + 508-707 (Z4) (domain or fragment)
chain: B5 chain 2
B9: Substrate II (dsRNA)
RNA 1: AGUGCGCUGUAUCUUCAAGGCCACU
RNA 2: AGUGGCCUUGAAGAUACAGCGCACUAAAAAUUUUUAAAAAAAAAA
B10: Substrate III (dsRNA)
RNA 1: AGUGCGCUGUAUCUUCAAGGCCACU
RNA 2: AGUGGCCUUGAAGAUACAGCGCACUAAAAAAAAAAUUUUUAAAAA

Assays:
MTR4, full length [1] = target: T1, MTR4, full length; experiment: pull-down
MTR4, full length [2] = target: T1, MTR4, full length; experiment: SEC
MTR4;ZCCHC8core;RBM7core = MTR4;ZCCHC8core;RBM7core (Homo sapiens?;Homo sapiens?;Homo …, UniProt P42285;Q6NZY4;Q9Y580 1-1042;1-707;6-94, |del416-507|); experiment: EMSA

Binder | binding result (MTR4, full length [1]) | binding result (MTR4;ZCCHC8core;RBM7core) | other results
B1 | binds | – | –
B2 | binds | – | –
B3 | – | – | binding result (MTR4, full length [2]): binds
B4 | binds | – | –
B5 | binds | – | –
B6 | – | binds | –
B7 | binds | – | –
B8 | binds | – | –
B9 | – | binds | –
B10 | – | binds | –
